Biological target: Rat MBL-A (mannan-binding lectin A) (rat) (UniProt P19999)
Test: SPR, MBL immobilised, MASP-1 at 100 nM, equivalent concentrations of NaCl up to 550 mM

Substance: MASP-1ent, modified form of rat MASP-1 in which the zymogen cleavage site has been replaced by an enterokinase recognition site (DDDDK) (from UniProt Q8CHN8 25-704) (enzyme)
- percent of maximal binding in the presence of NaCl (ionic strength control): > 60%
